The supplement of paper PMC12764529
± gives the half width of the 95% confidence interval.

Experiments:
[1] = folding stability dG unfold from chymotrypsin proteolysis; higher = more stable
Outline: (§1)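 Bayesian fitting of sequencing counts gave K50 for each design. Unfolding free energy followed by setting this against a sequence-predicted unfolded-state K50 and a shared folded-state K50, either per protease or with trypsin and chymotrypsin combined. The designs, under 80 residues and lacking cysteine, were digested in a PA-tagged cDNA display format at 11 threefold-diluted protease concentrations and without protease, and only those with AlphaFold2 dimer inter-PAE above 15 were kept.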

[2] = folding stability dG unfold from trypsin proteolysis; higher = more stable
Outline: as §1

[3] = folding stability dG unfold (combined trypsin and chymotrypsin); higher = more stable
Outline: as §1

Sequence | folding stability dG unfold [1] | folding stability dG unfold [2] | folding stability dG unfold [3]
SAGGSKLPPGQKVIEIEWKIPPGLKPGQPFKISDEFINKLAERHGNIHITNIQFTNSYMKWSIIIDSAGGSA [r2_383_TrROS] | 2.2 ± 0.051 kcal/mol | 1.83 ± 0.063 kcal/mol | 2.11 ± 0.067 kcal/mol
SAGGSKMEIVKYDKEKNVIYVRVDGKTYTFPLDEITEVTFDEETGELTIKVNGKTYTIKLDLPDLVSAGGSA [r2_48_TrROS_Hall] | 4.29 ± 0.12 kcal/mol | 3.22 ± 0.16 kcal/mol | 4.11 ± 0.29 kcal/mol
SAGGSKMPPGYKMIPIEIPFRTPEDLEQAINFAEELAREGFTIIDIDVEIPEGDNYRVEFHIMLPYSAGGSA [r2_350_TrROS] | 2.6 ± 0.048 kcal/mol | 1.85 ± 0.056 kcal/mol | 2.31 ± 0.1 kcal/mol
SAGGSKPILKIKITIYRIDKNGKLIKKIELTLPPLTEEQLKKLLEALKKLPKDVKIVEVKIELVEPSAGGSA [r2_75_TrROS_Hall] | 4.54 ± 0.26 kcal/mol | 3.49 ± 0.32 kcal/mol | 4.16 ± 0.31 kcal/mol
SAGGSKPLKKIVIPLTPEELKKLKGKKVKITIKVDGKEYEIEFIDGYAVITVPAGEKVEITKIEIESAGGSA [r2_246_TrROS_Hall] | 2.36 ± 0.12 kcal/mol | 2.47 ± 0.15 kcal/mol | 2.41 ± 0.22 kcal/mol
SAGGSKPVKVTVRRDPKNPDKWTVTVTAGDKTTTLTFDPNDEAAVRAALEAALPADEVLEELEFEDLLSAGG [r13_519_JUSTAS] | 2.99 ± 0.043 kcal/mol | 2.8 ± 0.12 kcal/mol | 2.88 ± 0.17 kcal/mol
SAGGSKTITIELTTKDGYKFTITVTEKDDKVTANITFLDPTVTPEKIDETIATLEKLAKEAGKNLTISSAGG [r13_774_TrMRF] | 3.66 ± 0.088 kcal/mol | 2.62 ± 0.11 kcal/mol | 3.36 ± 0.095 kcal/mol
SAGGSKVRIEVEELPDGTVKVTAEVEVDGVLYKIEAEFRINEDGEIVEMKVKIEARPLPPPPPPEESAGGSA [r2_474_TrROS_Hall] | 4.17 ± 0.17 kcal/mol | 3.5 ± 0.27 kcal/mol | 3.92 ± 0.21 kcal/mol
SAGGSLEDFELAGTFPATSEGETLLVTVWKSKEPGKYVVSAYYPSTGIPEVKVVNPEDIEEFFKNLYSAGGS [r8_469_TrMRF] | 1.95 ± 0.051 kcal/mol | 1.48 ± 0.02 kcal/mol | 1.78 ± 0.054 kcal/mol
SAGGSLELPEGAKVEVEVEIEEVDDDTVKIKVKVKFTFINEDGEPETFEAEFEFEIPKEEAEELLGSAGGSA [r2_226_TrMRF] | 3.66 ± 0.11 kcal/mol | 1.88 ± 0.17 kcal/mol | 3.32 ± 0.13 kcal/mol
SAGGSLFEKLNVKSVEVTEVKTYTLPPLPLTVEVPTVKVTLPDGTVIEFTVIKTYDPEDPTPTVTLGSAGGS [r8_422_JUSTAS] | 1.31 ± 0.12 kcal/mol | 0.822 ± 0.027 kcal/mol | 1.08 ± 0.07 kcal/mol
SAGGSLKDMPVEDLAKYFARKMGYPITDVKVERNPDPPWIKINIEMEHPNDGRRHPHEIWIPKDDISAGGSA [r2_156_TrROS] | 1.3 ± 0.11 kcal/mol | 0.527 ± 0.062 kcal/mol | 0.995 ± 0.083 kcal/mol
SAGGSLLEQEAAARGYQVEIERIPGTGVYLVTLTPPDGSRVVVTVEVVKTPKTGLVELRTLETRELPPSAGG [r13_936_JUSTAS] | 1.707 ± 0.011 kcal/mol | 1.24 ± 0.023 kcal/mol | 1.53 ± 0.052 kcal/mol
SAGGSLSEIIEKAKELAKKKYPNKGVTVPVEIKYKDPVKKKWIKVKIEITFDKNGNIIKITIKEIKLESAGG [r13_770_JUSTAS] | 4.04 ± 0.12 kcal/mol | 3.48 ± 0.27 kcal/mol | 3.91 ± 0.41 kcal/mol
SAGGSMAKILEIIPEEKKIVVEFEGDPKTFPLDEIEEIRIEPEKGYLTIKVGDKVYTIPLDDPNDFSAGGSA [r2_48_TrMRF] | 2.25 ± 0.044 kcal/mol | 0.579 ± 0.027 kcal/mol | 1.81 ± 0.082 kcal/mol
SAGGSMDLRVVVVGEDGKVLELPAGEEVSLPDVVAFFSELGDFEVEAHPESGTLTIRVPKGVLEEASAGGSA [r2_164_TrMRF] | 0.804 ± 0.042 kcal/mol | 0.543 ± 0.02 kcal/mol | 0.728 ± 0.046 kcal/mol
SAGGSMEIVKKETFTLEDGRKIEVVYDKETNKYVVKIYNKETGEEVEITVKSKEEAEEALKKLLEESAGGSA [r2_70_TrROS_Hall] | 3.76 ± 0.072 kcal/mol | 1.88 ± 0.13 kcal/mol | 3.43 ± 0.37 kcal/mol
SAGGSMIEEAIEEALKKGLEKVEIEVEVEVNGKIYRVKMEIVKVEEGKVEIKIEVEEIDPETGKLISAGGSA [r2_420_TrROS_Hall] | 3.92 ± 0.15 kcal/mol | 2.54 ± 0.13 kcal/mol | 3.53 ± 0.19 kcal/mol
SAGGSMIELTLTSTVPDGTPASTVPPEVAREQALAYAEAQGLTVVEIRVEFDPEAGTITIPVVTALSAGGSA [r2_237_JUSTAS] | 0.679 ± 0.13 kcal/mol | 1.38 ± 0.042 kcal/mol | 1.11 ± 0.12 kcal/mol
SAGGSMISTLSESVDPAKNTTYYLNLYTEGSRAYGALVTVTTDPATGTKTITTKFPALPEVTTTETVASAGG [r13_615_JUSTAS] | 0.489 ± 0.061 kcal/mol | 0.511 ± 0.026 kcal/mol | 0.551 ± 0.034 kcal/mol
SAGGSMIVIVEIKPDGTIKIKVRTKDGKEKTIEISKEELEKEETPEEIAEKLAKEFEKEGVEEIEISAGGSA [r2_249_TrROS_Hall] | 2.19 ± 0.54 kcal/mol | 2.88 ± 0.26 kcal/mol | 2.26 ± 0.32 kcal/mol
SAGGSMKEIVELGEVEFEEDSVALKVKFKVKLVFYDPETGEKVEEREEELEVYFGGDTLEFSPVEGSAGGSA [r2_271_TrMRF] | 2.373 ± 0.02 kcal/mol | 1.49 ± 0.045 kcal/mol | 2.08 ± 0.11 kcal/mol
SAGGSMKIVEIKIKRNKNGKLTIEIKVELSEEELEDKEKRKKLIEELAKKLAEELEKKFGIKVEVPSAGGSA [r2_306_TrROS_Hall] | 3.28 ± 0.091 kcal/mol | 3.16 ± 0.089 kcal/mol | 3.28 ± 0.14 kcal/mol
SAGGSMKVKIEVEKTPKGYKVRITVEKDGKTYEFEFPEDMSLEEVLEKLKKELEKEGVEIEKIEIVSAGGSA [r2_497_TrROS_Hall] | 4.58 ± 0.15 kcal/mol | 3.15 ± 0.13 kcal/mol | 4.43 ± 0.26 kcal/mol
SAGGSMLEVYYRIPPDIPLEEALERVAREVEEVLRARYGGPVTVEAEEVERPPDDETLLRVLVRFESAGGSA [r2_214_TrMRF] | 2.558 ± 0.024 kcal/mol | 1.7 ± 0.03 kcal/mol | 2.37 ± 0.11 kcal/mol
SAGGSMLTPDQVIELPDPNVTATITESEVLEEDPEHGTLLVKYLVVISKNGNPVEEERLLRVPKPVSAGGSA [r2_272_JUSTAS] | -0.476 ± 0.22 kcal/mol | 0.205 ± 0.042 kcal/mol | -0.01 ± 0.079 kcal/mol
